Biological target: human-FcRn (neonatal Fc receptor) (human) (UniProt P55899)
Test: SPR (ProteOn XPR36), IgG amine-coupled on reaction spots, human FcRn injected in kinetic titration, pH 6.0

UniProt P55899, sequence (P55899 24-297 limits assumed, chain 1 of 2): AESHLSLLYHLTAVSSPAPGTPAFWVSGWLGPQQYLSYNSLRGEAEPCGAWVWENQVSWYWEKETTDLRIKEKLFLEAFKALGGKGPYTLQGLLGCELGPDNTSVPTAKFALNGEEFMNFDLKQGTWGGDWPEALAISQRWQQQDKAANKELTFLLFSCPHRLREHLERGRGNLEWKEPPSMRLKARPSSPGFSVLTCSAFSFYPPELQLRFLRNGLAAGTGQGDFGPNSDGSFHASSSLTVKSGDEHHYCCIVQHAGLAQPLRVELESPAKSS
UniProt P55899, sequence (P61769 21-119 limits assumed, chain 2 of 2, further chain): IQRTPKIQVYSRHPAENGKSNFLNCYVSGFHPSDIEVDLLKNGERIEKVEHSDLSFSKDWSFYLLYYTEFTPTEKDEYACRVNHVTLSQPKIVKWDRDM

Row | Molecule | Kd [nM]
1 | hIgG2ΔA (control) (antibody) | 983
2 | hIgG2.EEE.L368E.Ab1.Ab1/hIgG2.RRR.K409R.Ab2.Ab2 (bispecific antibody, part only; not given: Variable regions and light chains, not shown: another chain or arm of the molecule) constant 1: ASTKGPSVFPLAPCSRSTSESTAALGCLVKDYFPEPVTVSWNSGALTSGVHTFPAVLQSSGLYSLSSVVTVPSSNFGTQTYTCNVDHKPSNTKVDKTVERKCEVECPECPAPPVAGPSVFLFPPKPKDTLMISRTPEVTCVVVDVSHEDPEVQFNWYVDGVEVHNAKTKPREEQFNSTFRVVSVLTVVHQDWLNGKEYKCKVSNKGLPSSIEKTISKTKGQPREPQVYTLPPSREEMTKNQVSLTCEVKGFYPSDIAVEWESNGQPENNYKTTPPMLDSDGSFFLYSKLTVDKSRWQQGNVFSCSVMHEALHNHYTQKSLSLSPGK constant 2: ASTKGPSVFPLAPCSRSTSESTAALGCLVKDYFPEPVTVSWNSGALTSGVHTFPAVLQSSGLYSLSSVVTVPSSNFGTQTYTCNVDHKPSNTKVDKTVERKCRVRCPRCPAPPVAGPSVFLFPPKPKDTLMISRTPEVTCVVVDVSHEDPEVQFNWYVDGVEVHNAKTKPREEQFNSTFRVVSVLTVVHQDWLNGKEYKCKVSNKGLPSSIEKTISKTKGQPREPQVYTLPPSREEMTKNQVSLTCLVKGFYPSDIAVEWESNGQPENNYKTTPPMLDSDGSFFLYSRLTVDKSRWQQGNVFSCSVMHEALHNHYTQKSLSLSPGK | 600

From patent US20130115208A1
